This note sets out measurements from publication PMC8643277.

The target of one data set is T1, GFP-NLRP6 monomer (Homo sapiens, UniProt P59044 1-892).
T1 sequence: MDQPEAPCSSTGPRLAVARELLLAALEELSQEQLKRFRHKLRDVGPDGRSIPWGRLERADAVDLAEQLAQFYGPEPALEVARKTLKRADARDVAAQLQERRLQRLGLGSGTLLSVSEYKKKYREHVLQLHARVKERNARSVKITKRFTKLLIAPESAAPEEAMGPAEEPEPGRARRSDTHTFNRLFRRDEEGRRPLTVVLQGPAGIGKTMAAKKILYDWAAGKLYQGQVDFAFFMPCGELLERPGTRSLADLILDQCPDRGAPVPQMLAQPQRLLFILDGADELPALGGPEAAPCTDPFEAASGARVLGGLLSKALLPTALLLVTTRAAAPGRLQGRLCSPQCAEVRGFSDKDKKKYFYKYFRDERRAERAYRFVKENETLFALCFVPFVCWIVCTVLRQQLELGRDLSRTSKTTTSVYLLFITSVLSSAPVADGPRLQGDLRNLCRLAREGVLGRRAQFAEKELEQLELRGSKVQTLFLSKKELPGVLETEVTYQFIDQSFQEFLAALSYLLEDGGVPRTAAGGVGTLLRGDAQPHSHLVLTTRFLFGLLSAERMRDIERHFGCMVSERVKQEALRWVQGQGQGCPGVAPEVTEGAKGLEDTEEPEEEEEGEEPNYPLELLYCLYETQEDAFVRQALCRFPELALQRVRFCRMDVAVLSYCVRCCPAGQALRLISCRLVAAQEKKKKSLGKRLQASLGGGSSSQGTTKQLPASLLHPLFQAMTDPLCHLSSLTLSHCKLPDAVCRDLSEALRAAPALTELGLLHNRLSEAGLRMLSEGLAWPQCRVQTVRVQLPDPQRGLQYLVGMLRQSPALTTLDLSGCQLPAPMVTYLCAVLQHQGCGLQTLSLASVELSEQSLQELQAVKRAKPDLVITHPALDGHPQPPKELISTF
In words: MST.

Another data set has as its target MBP-NLRP3 deltaPYD (UniProt Q96P20 134-1034). Briefly: EMSA.

Chain of MBP-NLRP3 deltaPYD (Q96P20 134-1034, stated change not applied): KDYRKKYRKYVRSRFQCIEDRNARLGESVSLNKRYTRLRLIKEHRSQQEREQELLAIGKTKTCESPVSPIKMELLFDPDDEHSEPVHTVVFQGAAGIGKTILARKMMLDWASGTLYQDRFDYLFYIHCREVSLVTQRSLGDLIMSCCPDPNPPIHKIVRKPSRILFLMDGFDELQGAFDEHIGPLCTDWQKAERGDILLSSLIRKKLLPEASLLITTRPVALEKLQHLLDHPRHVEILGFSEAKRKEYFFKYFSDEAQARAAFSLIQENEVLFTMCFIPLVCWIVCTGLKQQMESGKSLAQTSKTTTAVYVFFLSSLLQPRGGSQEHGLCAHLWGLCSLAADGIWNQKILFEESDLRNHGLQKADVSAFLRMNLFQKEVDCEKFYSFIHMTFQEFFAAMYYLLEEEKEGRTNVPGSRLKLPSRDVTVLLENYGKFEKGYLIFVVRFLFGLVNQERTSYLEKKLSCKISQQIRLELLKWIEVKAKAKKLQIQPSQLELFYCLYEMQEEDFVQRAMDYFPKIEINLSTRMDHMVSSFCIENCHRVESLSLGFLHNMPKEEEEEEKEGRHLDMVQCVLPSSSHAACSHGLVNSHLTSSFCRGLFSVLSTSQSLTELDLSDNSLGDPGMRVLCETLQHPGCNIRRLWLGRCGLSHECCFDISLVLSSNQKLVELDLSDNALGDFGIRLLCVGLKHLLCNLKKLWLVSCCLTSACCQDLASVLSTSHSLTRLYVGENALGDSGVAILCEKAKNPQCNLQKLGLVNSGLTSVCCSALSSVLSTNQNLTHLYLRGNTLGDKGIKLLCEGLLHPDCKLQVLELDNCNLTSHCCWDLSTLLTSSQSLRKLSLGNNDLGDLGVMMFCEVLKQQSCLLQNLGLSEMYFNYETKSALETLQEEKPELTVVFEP

B1: 20-bp dsRNA (dsRNA)
RNA 1: GACCUUCUGAUCAGAAGGUC
RNA 2: GACCUUCUGAUCAGAAGGUC
For the molecule B1, the Kd with GFP-NLRP6 monomer was around 1200 nM. The binding result in the data set with MBP-NLRP3 deltaPYD is recorded as “no binding”.
